# In the nanobody polyreactivity screen of Harvey et al. (2022):
# Assay: yeast display, Sf9 membrane polyspecificity reagent, FACS + sequencing; frameworks hold sequencing errors
# Summary of the method: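 Sorting gates, low and high (top ~1%), were placed on anti-HA fluorescence to track expression and on streptavidin fluorescence to track reagent binding. A clone's polyreactivity label is taken from the gate it came out of. The reagent was 10% biotinylated, detergent-solubilized Sf9 membrane, applied for 1 hour at 4 °C to galactose-induced yeast display cells.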
row,Sequence,polyreactivity (PSR sort gate)
1,QVQLVESGGGLVQAGGSRRLSCAASGRTFDFYAMGWYRQAPGKERELVAAITGADTSTYYADSVKGRFTISRDNAMNTDYLQMNSLKPEDTAVYYCASDGQWAYTVDPYVIYYRLDYWGQGTQVTVSS,low polyreactivity
2,QVQLVESGGGLVQAGGSLRLSCAASGITFDTYAMGWYRQAPGKERELVAAISSSGSTNYADSVKGRFTISRDNAKNTVYLQMNSLKPEDTAVYYCATDYWPGTGGNYDYWGQGTQVTVSS,low polyreactivity
3,QVQLVESGGGLVQAGGSLRLSGAASGGTFSTNAMGWYRQAPGKERELVAAISLSGGRTYADSEKGRFTISRDNAKNTVYLKMNSVKPEDTAVYYCNADSAGITRARSELDYWGQGTQVTVSS,low polyreactivity
4,QVQLVESVGGLVQAGGSLRLSCAASGSTFIQYAMGRYRHAPGKERELVASNSRSAGSTYYADSVKGRFTISRDNAKNTVYLQMNSLKPEDTAVYYCAADSYYLGYYLGSYSWDYGYWGQGTQVTVSS,high polyreactivity
5,QVQLVESGGCLVQAGGSLRLSCAASGRIFHQNTMGWYRQAPGKERELVAAISATGGGTNYADSVKGRFTISRDNAKNTVYLQMNSLKPEDTAVYYCAVRPKTSWYSWYYWGQGTQVTVSS,low polyreactivity
6,QVQLVESGGGLVQAGGSLRLSCAASGRNFIVNAMGWYRQAHGKEREFVAAITSRGGITYYADSVKGRFTISRDNAKNTVYLQMNSLKPEDTAVYYCAAGYITWGSGNWVVTPYDYWGQGTQVTVSS,high polyreactivity
7,QVQLVESGGGLVQAGGSLRLSCAASGRIFDIYTMGWYRQAPGKERELVASITKRGGSTYYADSVKGRFTISRDNAKNTVYLQMNSLKPEDTAVYYCNAVYSWYRRYGLEGYWGQGTQVTVSS,high polyreactivity
8,QVQLVEAGGGLVQAGGSLRLSCAASGRILRYYTMGWYRPAPGKERELVAAISRRGTSTHYADSVKGRFTISRDHAKNTVYLQMNSLKPEDTAVYYCAADPSVWSDYYYWGQGTQVTVSS,high polyreactivity
9,QVQLVESGGGLVQAGGSLRLSCAASGNIFPYYAMGWYRQAPGKERELVASISRSGGSTYYADSVKGRFTISRDNAKNTVYLQMNSLKPEDTAVYYCAKRTPYYGFGFFHPARGYGYWGQGTQVTVSS,low polyreactivity
10,QVQLVESGRGLVQAGGSLRLSCAASGFTFYYYAMGRYRQAPGKERELVAAISTRDGNTYYADSVKARFTISRDNAKNTVYLQMKSLKTEVTAVYYCAAAYFRYYPYDYWGQGTLVTVSS,low polyreactivity
11,QGQLVESGGGLVQAGGSLRLTCAASGLTFWWYAMGWYRQAPGKERELVAAISSSGGSTYYADSVKGRFTISRDNAKNTVYLQMNSLKPEDTAVYYCAADGGFEYEYDYWGQGTQVTVTS,low polyreactivity
12,QVQLVESGRGLVQAGGSLRISCAASGFTFVRYVMGWYRQAPGTESELVAAISRSGGSTHYADSVKGRFTISRDNAKNTVYFQMTSLKPEDTAVYYCAAACPRWPGQGDYWGQGTQVTVSS,high polyreactivity
13,QVQLVESGGGLVQAGGSLRLSCAASGSTFSPYVMGWYRQAPGKERELVAAITSGGITNYADSVKGRFTISRDNAKNTVYLQMNSLKPEDTAVYYCNVDRYIRDSWGDYWGQGTQVTVSS,high polyreactivity
14,QVKLVESGGGLVQAGGSLRLSCHASGFTFPYYAMGWYRQAPGKERELVAAISQIGDRTYYADSVKGRFTISRDNAKNTVYLQMNSLKPEDTAVYYCNGAGKVRKYGYWGQGTQVTVSS,high polyreactivity
15,QVQLVESGGGLVQAGGSLRLSCAASGSIFGENAMGGYRQAPGKERELVAAITSGGSTDYADSVKGRFTISRDNAKNTVYLQMNSLKPEDTAVYYCAASGRVGPGYWYDSWGQGTQVTVSS,low polyreactivity
16,QVQLVESGGGLVQAGGSLRLSCAASGFTFHNYAMGWYRQAPGKEREFVAAITRNTASTYYADSVKGRFTISRDNAKNTVYLQMNSLKPEDTAVYYCAATDKKHRTAYDSWGQGTQVTVSS,low polyreactivity
17,QVQLVESGGGLVQAGGSLRLSCAASGSIFGLYAMGWYRQAPGKERELVAAISTSSGRTYYADSVKGRFTISRDNAKNTVYLQMNSLKPEDTAVYYCAASGAWWSLHYAGDYWGQGTQVTVSS,high polyreactivity
18,QVQLVESGGGLVQAGGSLRLSCAASGITFGVNTMGWYRQAPGKERELVAAITWRGGSTYYADSVKGRFTISRDNAQNTVYLQMNSLIPEDTAVYYCAAQPIWPGGQELDYWGQGTQVTVSS,low polyreactivity
19,QVQLVESGGGLVQAGGSLRLSCAASGFIFGDYAMGWYRQAPGKERELVAAIRCSDSTTYYADSVKGRFTISRDNAKNTVYLQMNSLKPEDTAVYYCAAVGVVPRKKSARVYYWGQGTQVTVSS,low polyreactivity
20,QVQLVESGGGLVQAGGSLRLSCAASGRIFDKYTMGWYRQAPGKERELVAAISKSGSGTFYADSVKGRFTISRDNAKNTVYLQMNSLKPEDTAVYYCARVYTVGTGRSWRLDYCGQGTQVTVSS,high polyreactivity

row,Sequence,polyreactivity (PSR sort gate)
1,QVQLVESGGGLVQAGGSLLLSCSASVLIFYDNDMGWYRQAPGKERVFVAAITSLGGSTYYADSVKGRFTISRDNAKNTVYLQMNSLKPEDTAVYYCNVKSKYYSPNYDYWGQVTQVTVSS,low polyreactivity
2,QVQLVESGGGLVQAGGSLRLSCAASGIIFYRNAMGWYRQAPGKERELVAGITSGGSTYYADSVKGRFTISRDNAKNTVYLQMNSLKPEYTAVYYCAAYYRASQRYLQYGYWGQGTQVTVSS,high polyreactivity
3,QVQLVESGGGLVQAGGSLRLSCAASGLTFSIYAMGWYRQAPGKERELVAAISWSGGSTYYADSVKGRFTISRDNAKNTVYLQMNSLKPEDTAVYYCAARVYRPWWRYDYWGQGTQVTVSS,high polyreactivity
4,QVHHVESGGGLVQAGGILRLSCAASGFTIFKYAMGWSRQKPGKERELVATISIDGITNYADSVKGRFTISRDNAKNTVYLQMNILKPEDTAVYYCHALSLYQQLGYWGQGTQVTVSS,low polyreactivity
5,QVQLVESGGGLVQAGGSLRLSCAASGSTFVAYAMGSYRQAPGKERELVAAISASGVRTYYADSVKGRFTISRDNAKNTVYLQMNSLKPEDTAVYYCAATVFRKYRYGYWGQGTQVTVSS,high polyreactivity
6,QVQLVESGGGLVQARGSLRLSCAASGLTFRRNTMGWYRQAPGKERELVATITSGGSTNYADSVKGRFTISRDNAKNTVYLQMISLKPEDTAVYYCAARTTYITNWVYRHTYTYYYWGQGTQVTVSS,high polyreactivity
7,QDQLVESGGGLVQAGGSLRLSCAASGFTFGSYAMGWYRQAPGKERELVAAISSNGGNTYYADSVKGRFTISRDNAKNTVYLQMNSLKPEDTAVYYCAARYPSGTRKWYGYWGQGTQVTVSS,high polyreactivity
8,QVQLVESGGGLVQAGGSLRLSCAASGGIFGTNDMGWYRQAPGKERELVAAITSDSGSTYYADSVKGRFTISRDNAKNTVYLQMNSLKPEDTAVYYCAAEDGPWFYRYGYWGQGTQVTVSS,low polyreactivity
9,QVQLVESGGGLVQAGGSLRLSCAASGSILDPYVMGWYRQSPGKEWELVAAITQSGGSTYYADSVKGRFTISRDNAKNTVYLQMNSLKPEDTAVYYCATTRPIRRTSARYNYWGQGTQVTVSS,low polyreactivity
10,QVQLVESGGGLVQAGGSLRLSCAASGNIFSDNAMGWYIQAPGKERELVAAITSGGSTNYADSVKGRFTISLDNAKNTVYLQMISLKPEDNAVYYCAADISYRHFLFDYWGQGTQVTVSS,low polyreactivity
11,QVQLVESGGGLVQAGGSLRLSCAASGSIFGAYAMGWYRQAPGKETELVASITGNGGSTYYADSVKGRFTISRDNAKNTVYLQMNSLKPEDTAVYYCAADDYSTRYRWFYYGSPYYYWGQGTQVTVSS,high polyreactivity
12,QVQLVESGGGLLQAGGSLRLSCAASGRIFVVYAMGWYRQAPGKERELVASITWRGGSTYYADSVKGRFTISRDNAKNTVYLQMNSLKPEDTAVYYCAAELDVYVSIGSRFHFDYWGQGTQVTVSS,low polyreactivity
13,QVQLVESGGGLVQAGGSLRLSCAASGLIFGYNAMGWYRQAPGKESELVAAISSSGGSTSYADSVKGRFTISRDNAKNTVYLQMNSLKPEDTAVYYCAAKPGRYADYDYNSWGQGTQVTVSS,low polyreactivity
14,QVQLVESGGGLVQAGGSLRLSCAASGSTFDDYAMGWYRQAPGKERELVAAISRSDGSTSYADSVKGRFTISRDNAKNTVYLQMNSLKPEDTAVYYCAADPVFKDDLWPVRVRVDYWGQGTQVTVSS,low polyreactivity
15,QVQIVESGRGLVQAGGSLRLSCAASGSIFKKYAMGWYRQAPGKERELVAAISSRGGRTYYADSVKGRFTISRDNAKNTVYLQMNSLKPEDTAVYYCNTDISQPGAYDYWGQGTQVTVSS,high polyreactivity
16,QVQLVESGGGLVQAGGSLRLSCAASGITFWRYAMGWYRQAPGKERELVAAINSGGGTKFADSVKGRFTISRDNAKNTVYLQMNSLKPEDTAVYYCAAKYVFTLHRYDYWGQGTQVTVSS,high polyreactivity
17,QVQLVESGGGLVQAGGSLRLSCAASGSIFLGNAMGWYRQAPGKERELVAAITSRGGRTYYADSVKGRFTISRDNAKNTVYLLMNSLKPEDTAVYYFAVLGFGALDFDSWGQGTEVTVSS,high polyreactivity
18,QVQLVESGGGLVLAGGSLRLSCAASGLILPYYTMGWYREAPGKERELVAAIRRTTGSTFYADSVKGRFTISRDNAKNTVYLQMNSLKPEDTAVYYCNVRRTPYRHWTGGGMDYWGQGTQVTVSS,high polyreactivity
19,QVQLVESGGGLGKAVGSLRLSCAASGSTFEYYALGWYRLAPGTETELVAAISTAGSTYYADSVKGRFTISRDNAKYTVYLQMNSLKPEDTGVYYCAVDPSPRSYYNYYWGQGTQVTVSS,high polyreactivity
20,QVQLVESGGGLVQAGGSLRLSCPTSGRNLRWYAMVWYIQAPGKERELVAAIKRSGDTTYYADSVKGRFTISRDNAKNTVYLQMNSLKPEHTAVYYCAARYTRKYDYWGQGTQVTVSS,high polyreactivity
